Results published in patent US20230203469A1.

Tests used:
[1] = biological target: recombinant VWF (full-length, multimeric rVWF), P04275
[2] = biological target: T1, FRETS-VWF73 substrate, P04275
T1 chain: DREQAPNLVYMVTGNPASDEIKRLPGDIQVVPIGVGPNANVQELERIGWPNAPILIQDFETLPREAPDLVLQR

[3] = biological target: von Willebrand factor (VWF), substrate of the in vitro cleavage of Table 1, P04275

B1: Q97R ADAMTS13 variant (protein)
chain: AAGGILHLELLVAVGPDVFQAHREDTERYVLTNLNIGAELLRDPSLGAQFRVHLVKMVILTEPEGAPNITANLTSSLLSVCGWSQTINPEDDTDPGHADLVLYITRFDLELPDGNRQVRGVTQLGGACSPTWSCLITEDTGFDLGVTIAHEIGHSFGLEHDGAPGSGCGPSGHVMASDGAAPRAGLAWSPCSRRQLLSLLSAGRARCVWDPPRPQPGSAGHPPDAQPGLYYSANEQCRVAFGPKAVACTFAREHLDMCQALSCHTDPLDQSSCSRLLVPLLDGTECGVEKWCSKGRCRSLVELTPIAAVHGRWSSWGPRSPCSRSCGGGVVTRRRQCNNPRPAFGGRACVGADLQAEMCNTQACEKTQLEFMSQQCARTDGQPLRSSPGGASFYHWGAAVPHSQGDALCRHMCRAIGESFIMKRGDSFLDGTRCMPSGPREDGTLSLCVSGSCRTFGCDGRMDSQQVWDRCQVCGGDNSTCSPRKGSFTAGRAREYVTFLTVTPNLTSVYIANHRPLFTHLAVRIGGRYVVAGKMSISPNTTYPSLLEDGRVEYRVALTEDRLPRLEEIRIWGPLQEDADIQVYRRYGEEYGNLTRPDITFTYFQPKPRQAWVWAAVRGPCSVSCGAGLRWVNYSCLDQARKELVETVQCQGSQQPPAWPEACVLEPCPPYWAVGDFGPCSASCGGGLRERPVRCVEAQGSLLKTLPPARCRAGAQQPAVALETCNPQPCPARWEVSEPSSCTSAGGAGLALENETCVPGADGLEAPVTEGPGSVDEKLPAPEPCVGMSCPPGWGHLDATSAGEKAPSPWGSIRTGAQAAHVWTPAAGSCSVSCGRGLMELRFLCMDSALRVPVQEELCGLASKPGSRREVCQAVPCPARWQYKLAACSVSCGRGVVRRILYCARAHGEDDGEEILLDTQCQGLPRPEPQEACSLEPCPPRWKVMSLGPCSASCGLGTARRSVACVQLDQGQDVEVDEAACAALVRPEASVPCLIADCTYRWHVGTWMECSVSCGDGIQRRRDTCLGPQAQAPVPADFCQHLPKPVTVRGCWAGPCVGQGTPSLVPHEEAAAPGRTTATPAGASLEWSQARGLLFSPAPQPRRLLPGPQENSVQSSACGRQHLEPTGTIDMRGPGQADCAVAIGRPLGEVVTLRVLESSLNCSAGDMLLLWGRLTWRKMCRKLLDMTFSSKTNTLVVRQRCGRPGGGVLLRYGSQLAPETFYRECDMQLFGPWGEIVSPSLSPATSNAGGCRLFINVAPHARIAIHALATNMGAGTEGANASYILIRDTHSLRTTAFHGQQVLYWESESSQAEMEFSEGFLKAQASLRGQYWTLQSWVPEMQDPQSWKGKEGT
Degradation of full-length rVWF under denaturing conditions (VWF multimer analysis) [1]: Comparable
Specific rADAMTS13 activity (activity per total protein by UV) [2]: 1740 IU/mg
rADAMTS13 Activity (FRETS VWF73) [2]: 1370 IU/mL
specific activity (FRETS U/mg UV protein) against share of Q97R, regression [2]: suggesting that the Q^97R rADAMTS13 variant has similar activity to that of wildtype ADAMTS13

B2: plasma derived ADAMTS13 (pdADAMTS13) (protein)
chain: AAGGILHLELLVAVGPDVFQAHQEDTERYVLTNLNIGAELLRDPSLGAQFRVHLVKMVILTEPEGAPNITANLTSSLLSVCGWSQTINPEDDTDPGHADLVLYITRFDLELPDGNRQVRGVTQLGGACSPTWSCLITEDTGFDLGVTIAHEIGHSFGLEHDGAPGSGCGPSGHVMASDGAAPRAGLAWSPCSRRQLLSLLSAGRARCVWDPPRPQPGSAGHPPDAQPGLYYSANEQCRVAFGPKAVACTFAREHLDMCQALSCHTDPLDQSSCSRLLVPLLDGTECGVEKWCSKGRCRSLVELTPIAAVHGRWSSWGPRSPCSRSCGGGVVTRRRQCNNPRPAFGGRACVGADLQAEMCNTQACEKTQLEFMSQQCARTDGQPLRSSPGGASFYHWGAAVPHSQGDALCRHMCRAIGESFIMKRGDSFLDGTRCMPSGPREDGTLSLCVSGSCRTFGCDGRMDSQQVWDRCQVCGGDNSTCSPRKGSFTAGRAREYVTFLTVTPNLTSVYIANHRPLFTHLAVRIGGRYVVAGKMSISPNTTYPSLLEDGRVEYRVALTEDRLPRLEEIRIWGPLQEDADIQVYRRYGEEYGNLTRPDITFTYFQPKPRQAWVWAAVRGPCSVSCGAGLRWVNYSCLDQARKELVETVQCQGSQQPPAWPEACVLEPCPPYWAVGDFGPCSASCGGGLRERPVRCVEAQGSLLKTLPPARCRAGAQQPAVALETCNPQPCPARWEVSEPSSCTSAGGAGLALENETCVPGADGLEAPVTEGPGSVDEKLPAPEPCVGMSCPPGWGHLDATSAGEKAPSPWGSIRTGAQAAHVWTPAAGSCSVSCGRGLMELRFLCMDSALRVPVQEELCGLASKPGSRREVCQAVPCPARWQYKLAACSVSCGRGVVRRILYCARAHGEDDGEEILLDTQCQGLPRPEPQEACSLEPCPPRWKVMSLGPCSASCGLGTARRSVACVQLDQGQDVEVDEAACAALVRPEASVPCLIADCTYRWHVGTWMECSVSCGDGIQRRRDTCLGPQAQAPVPADFCQHLPKPVTVRGCWAGPCVGQGTPSLVPHEEAAAPGRTTATPAGASLEWSQARGLLFSPAPQPRRLLPGPQENSVQSSACGRQHLEPTGTIDMRGPGQADCAVAIGRPLGEVVTLRVLESSLNCSAGDMLLLWGRLTWRKMCRKLLDMTFSSKTNTLVVRQRCGRPGGGVLLRYGSQLAPETFYRECDMQLFGPWGEIVSPSLSPATSNAGGCRLFINVAPHARIAIHALATNMGAGTEGANASYILIRDTHSLRTTAFHGQQVLYWESESSQAEMEFSEGFLKAQASLRGQYWTLQSWVPEMQDPQSWKGKEGT
IU VWF RCo/ml left; ADAMTS13 0.1 U/ml, 0 h (IU VWF RCo/ml) [3]: 0.75
IU VWF RCo/ml left; ADAMTS13 0.1 U/ml, 15 seconds (IU VWF RCo/ml) [3]: 0.38
IU VWF RCo/ml left; ADAMTS13 0.1 U/ml, 30 seconds (IU VWF RCo/ml) [3]: 0.37
IU VWF RCo/ml left; ADAMTS13 0.1 U/ml, 1 minute (IU VWF RCo/ml) [3]: 0.21
IU VWF RCo/ml left; ADAMTS13 0.1 U/ml, 2 minutes (IU VWF RCo/ml) [3]: < 0.17
IU VWF RCo/ml left; ADAMTS13 0.1 U/ml, 5 minutes (IU VWF RCo/ml) [3]: < 0.17
IU VWF RCo/ml left; ADAMTS13 0.5 U/ml, 0 h (IU VWF RCo/ml) [3]: 0.78
IU VWF RCo/ml left; ADAMTS13 0.5 U/ml, 15 seconds (IU VWF RCo/ml) [3]: < 0.17
IU VWF RCo/ml left; ADAMTS13 0.5 U/ml, 30 seconds (IU VWF RCo/ml) [3]: < 0.17
IU VWF RCo/ml left; ADAMTS13 0.5 U/ml, 1 minute (IU VWF RCo/ml) [3]: < 0.17
IU VWF RCo/ml left; ADAMTS13 0.5 U/ml, 2 minutes (IU VWF RCo/ml) [3]: < 0.17
IU VWF RCo/ml left; ADAMTS13 0.5 U/ml, 5 minutes (IU VWF RCo/ml) [3]: < 0.17
IU VWF RCo/ml left; ADAMTS13 1.0 U/ml, 0 h (IU VWF RCo/ml) [3]: 0.26
IU VWF RCo/ml left; ADAMTS13 1.0 U/ml, 15 seconds (IU VWF RCo/ml) [3]: < 0.17
IU VWF RCo/ml left; ADAMTS13 1.0 U/ml, 30 seconds (IU VWF RCo/ml) [3]: < 0.17
IU VWF RCo/ml left; ADAMTS13 1.0 U/ml, 1 minute (IU VWF RCo/ml) [3]: < 0.17
IU VWF RCo/ml left; ADAMTS13 1.0 U/ml, 2 minutes (IU VWF RCo/ml) [3]: < 0.17
IU VWF RCo/ml left; ADAMTS13 1.0 U/ml, 5 minutes (IU VWF RCo/ml) [3]: < 0.17
specific activity (FRETS U/antigen U), compared with mixed rADAMTS13 batches [2]: the average specific activity of the mixed rADAMTS13 batches is comparable with the specific activity of pdADAMTS13
